What was measured:
[1] = Peptidyl-prolyl cis-trans isomerase (PPIase) activity; assay type: biochemical; conditions: homogeneous FKBP12 vs partially pure (about 25%) FKBP12.6
Description: PPIase assays were performed as described (Fischer, G., et al., Nature, 337,476-478 (1989)) with the following changes: the peptide substrate used was N-succinyl-Ala-Leu-Pro-Phe-p-nitroanilide (BACHEM, California) at a final concentration of 72 μM and chymotrypsin (Sigma) was present in the assay at a concentration of 6 μM. The total reaction volume was 1.5 ml. The release of p-nitroanilide by chymotrypsin was measured by following the increase in absorbance at 405 nm on a Beckman DU68 spectrophotometer. After an initial rapid rise in absorbance due to hydrolysis of the trans peptide, the slow secondary increase in absorbance which reflects the cis-to-trans conversion of the peptide by the PPIase was measured at 3 sec intervals out to 1.5 min. The data were fitted to a simple first-order rate equation and the first-order rate constant, k (s^-1), calculated.

calcineurin [2] = assay: Calcineurin phosphatase assay; assay type: biochemical, bovine; conditions: in presence of FK-506, CaN, CaM, Ca^2+, Mg^2+; read-out: IC50 for inhibition of CaN
Description: For a side-by-side comparison, FKBP12 was also tested for its ability to inhibit calcineurin in the presence of drug.
The calcineurin phosphatase assay is a modified version of previous assays (Liu, J., et al., Cell, 66, 807-815 (1991); Manalan, A., et al., Proc. Natl. Acad. Sci. U.S.A., 80, 4291-4295 (1983)). Reaction mixtures ([…] contained: 40 mM Tris (pH 8), 100 mM NaCl, 6 mM Mg(OAc)2, 0.1 mM CaCl2, 0.1 mg/ml BSA, 0.5 mM dithiothreitol, 190 nM bovine brain calmodulin (Sigma), 3 nM bovine brain calcineurin (Sigma), and 40 μM [^33 P]RII peptide (Peptides International) (600 cpm/pmole). Reaction mixtures were pre-incubated for 30 min at 30° C. prior to addition of the labeled peptide. The reaction was initiated by addition of the peptide and the dephosphorylation reaction was allowed to proceed for 10 min at 30° C. The reaction was terminated by the addition of 0.5 ml of 5% trichloroacetic acid containing 100 mM sodium phosphate (stop buffer) and applied to a 0.5 ml Dowex 50W-X8, H^+ column. Free [^33 P]phosphate was eluted from the column with 0.5 ml of stop buffer followed by 0.5 ml of water.

calcineurin [3] = assay: FKBP.FK-506.CaN complex-formation assay (size-exclusion column, Western analysis); assay type: binding, bovine; conditions: partially purified FKBPs, CaM, Ca^2+, Mg^2+ and FK-506
Description: In the modified assay, samples were assayed by Western analysis using the anti-C-terminal peptide antibody in order to identify FKBP12 and FKBP12.6 in various chromatographic fractions.
In the first experiment, FKBP12 and FKBP12.6 were partially purified by preparative HPLC gel filtration chromatography on a Bio-Sil TSK-125 column. These partially purified FKBPs (containing both FKBP12 and FKBP12.6) are devoid of CaN which separates completely from them on this column. FKBP12 and FKBP12.6 co-elute at fractions 26 and 27 on the analytical sizing column (G2000SW) used in this experiment. […] Because this crude FKBP material also contains FKBP12.6, it can also be observed migrating slightly above FKBP12 in FIG. 4A.
To more carefully examine the requirements for FKBP12.6 complex formation with CaN, experiments were conducted using purified FKBP12.6.
The incubation buffer contained 20 mM Tris (pH 7.5), 100 mM NaCl, 6 mM MgCl2, 0.1 mM CaCl2, 0.1 mg/ml BSA, and 0.5 mM dithiothreitol. The incubation reaction was chromatographed on a Bio-Sil SEC400 HPLC column (Bio-Rad) at a flow rate of 1 ml/min and 1 min fractions were collected. The chromatography buffer was the same as the incubation buffer except that BSA was omitted. 30 μl of fractions 19-29 were subjected to electrophoresis on a 16% Novex Tris-Glycine gel and Western analysis was performed as described above.

B1: FKBP12: abundant, cytosolic 11.8 kDa protein termed the FK-506 binding protein; bovine sequence SEQ ID NO:2 (protein)
chain: GVQVETISPGDGRTFPKRGQTCVVHYTGMLEDGKKFDSSRDRNKPFKFVLGKQEVIRGWEEGVAQMSVGQRAKLTISPDYAYGATGHPGIIPPNATLIFDVELLKLE
With B1 the “slope of PPIase rate relative to FKBP12.6” value [1] was 4.1 fold, the IC50 (calcineurin [2]) was 9.9 nM and the “complex formation with CaN” value (calcineurin [3]) was “a significant fraction of FKBP12 is in the FKBP12.FK-506-CaN complex”.

From patent publication US5457182A (Merck & Co., Inc., priority 1994, dated 1995)
